This is an account of results in publication PMC4958977, “Revisiting the mechanism of coagulation factor XIII activation and regulation from a structure/functional perspective” (Scientific Reports, 2016).

This data set concerns the molecule itself. The data set can be described thus: SEC; 25 ug purified FXIIIA2B2 incubated with 46.2 U/mL thrombin and 25 mM CaCl2, 20 mM Tris, 120 mM NaCl, pH 7.4, 60 minutes at 30 degrees; Superdex 200 PC 3.2/30; peaks checked by native PAGE and mass spectrometry. (Size exclusion chromatography separates by hydrodynamic size, large species first.)

B1: coagulation factor XIII B subunit (natural protein, human, UniProt P05160 21-661, looked up)
chain: EEKPCGFPHVENGRIAQYYYTFKSFYFPMSIDKKLSFFCLAGYTTESGRQEEQTTCTTEGWSPEPRCFKKCTKPDLSNGYISDVKLLYKIQENMRYGCASGYKTTGGKDEEVVQCLSDGWSSQPTCRKEHETCLAPELYNGNYSTTQKTFKVKDKVQYECATGYYTAGGKKTEEVECLTYGWSLTPKCTKLKCSSLRLIENGYFHPVKQTYEEGDVVQFFCHENYYLSGSDLIQCYNFGWYPESPVCEGRRNRCPPPPLPINSKIQTHSTTYRHGEIVHIECELNFEIHGSAEIRCEDGKWTEPPKCIEGQEKVACEEPPFIENGAANLHSKIYYNGDKVTYACKSGYLLHGSNEITCNRGKWTLPPECVENNENCKHPPVVMNGAVADGILASYATGSSVEYRCNEYYLLRGSKISRCEQGKWSSPPVCLEPCTVNVDYMNRNNIEMKWKYEGKVLHGDLIDFVCKQGYDLSPLTPLSELSVQCNRGEVKYPLCTRKESKGMCTSPPLIKHGVIISSTVDTYENGSSVEYRCFDHHFLEGSREAYCLDGMWTTPPLCLEPCTLSFTEMEKNNLLLKWDFDNRPHILHGEYIEFICRGDTYPAELYITGSILRMQCDRGQLKYPRCIPRQSTLSYQEPLRT
notes: human coagulation factor XIII B subunit from plasma, ten Sushi domains; 80 kDa; also called FXIIIB; FXIIIB2; source: purified as FXIIIA2B2 from plasma concentrate Fibrogammin P (CSL Behring), gel filtration on Superdex 200
With B1, the binding result is reported as “binds”.
